We go through four molecules from patent publication US20250263778A1 (Hoffmann-La Roche, published 2025).

Like-named read-outs stand apart in the source and are kept apart here. Bounds are passed on as bounds.

For test [1], the target named is T1, human LRP8 (Low-density lipoprotein receptor-related protein 8), biotinylated (human, UniProt Q14114 33-826, limits assumed, biotinylated).
T1 construct: also called hu-antigen; human antigen
Description: ELISA, biotinylated human LRP8.

Test [2] concerns the target T1, human LRP8 (Low-density lipoprotein …). Description: ELISA, biotinylated human LRP8. As for the experimental part: The antigen, biotinylated human LRP8, was incubated with 5 μL sample containing the anti-LRP8 antibody at a concentration of 250 ng/mL in a total volume of 25 μL in PBS, 0.5% BSA and 0.05% Tween in a 384 w microtiterplate (Maxisorb (with Streptavidin, Nunc). After 1.5 hrs. incubation at 25° C. unbound antibody was removed by washing 6 times with 90 μL PBS (dispense and aspiration). The antigen-antibody complex was detected by an anti-rabbit antibody conjugated to POD (ECL anti-rabbit IgG-POD, Cat. No. NA9340V; POD=peroxidase). 20-30 min after adding 35 μL POD-substrate 3,3′,5,5′-tetramethyl benzidine (TMB; Piercenet, Cat. No. 34021) the optical density was determined at 370 nm. The EC₅₀ value was calculated with a four parameter logistic model using GraphPad Prism 6.0 software.
This is another data set of the same source.

The target of test [3] is T2, murine LRP8, biotinylated (murine, UniProt Q924X6 29-858, limits assumed, biotinylated).
T2 construct: also called mu-antigen; murine antigen
The test can be described thus: ELISA, biotinylated murine LRP8.

Test [4] addresses T2, murine LRP8, biotinylated. The test can be described thus: ELISA, biotinylated murine LRP8. This is another data set of the same source.

T1 sequence (Q14114 33-826 limits assumed): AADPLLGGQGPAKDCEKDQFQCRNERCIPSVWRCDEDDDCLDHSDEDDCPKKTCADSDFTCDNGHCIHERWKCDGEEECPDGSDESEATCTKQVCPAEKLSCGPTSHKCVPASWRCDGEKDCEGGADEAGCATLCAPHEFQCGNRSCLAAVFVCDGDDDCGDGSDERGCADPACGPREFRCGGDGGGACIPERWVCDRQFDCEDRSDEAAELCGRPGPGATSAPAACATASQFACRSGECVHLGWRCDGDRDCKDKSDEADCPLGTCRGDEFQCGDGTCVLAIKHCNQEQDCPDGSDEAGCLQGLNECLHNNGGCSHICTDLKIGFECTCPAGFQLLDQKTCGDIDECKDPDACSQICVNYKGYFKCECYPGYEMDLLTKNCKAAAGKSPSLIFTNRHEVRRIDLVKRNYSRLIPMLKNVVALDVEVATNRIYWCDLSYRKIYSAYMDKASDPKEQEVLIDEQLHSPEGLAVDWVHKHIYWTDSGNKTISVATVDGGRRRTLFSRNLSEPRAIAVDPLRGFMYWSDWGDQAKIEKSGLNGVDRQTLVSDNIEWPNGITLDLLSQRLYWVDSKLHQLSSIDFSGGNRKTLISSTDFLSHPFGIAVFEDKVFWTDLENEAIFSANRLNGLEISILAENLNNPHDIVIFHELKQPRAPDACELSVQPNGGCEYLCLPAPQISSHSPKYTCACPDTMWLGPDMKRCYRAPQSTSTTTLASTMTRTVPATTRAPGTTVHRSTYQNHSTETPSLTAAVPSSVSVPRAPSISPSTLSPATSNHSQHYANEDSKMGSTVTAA
T2 sequence (Q924X6 29-858 limits assumed): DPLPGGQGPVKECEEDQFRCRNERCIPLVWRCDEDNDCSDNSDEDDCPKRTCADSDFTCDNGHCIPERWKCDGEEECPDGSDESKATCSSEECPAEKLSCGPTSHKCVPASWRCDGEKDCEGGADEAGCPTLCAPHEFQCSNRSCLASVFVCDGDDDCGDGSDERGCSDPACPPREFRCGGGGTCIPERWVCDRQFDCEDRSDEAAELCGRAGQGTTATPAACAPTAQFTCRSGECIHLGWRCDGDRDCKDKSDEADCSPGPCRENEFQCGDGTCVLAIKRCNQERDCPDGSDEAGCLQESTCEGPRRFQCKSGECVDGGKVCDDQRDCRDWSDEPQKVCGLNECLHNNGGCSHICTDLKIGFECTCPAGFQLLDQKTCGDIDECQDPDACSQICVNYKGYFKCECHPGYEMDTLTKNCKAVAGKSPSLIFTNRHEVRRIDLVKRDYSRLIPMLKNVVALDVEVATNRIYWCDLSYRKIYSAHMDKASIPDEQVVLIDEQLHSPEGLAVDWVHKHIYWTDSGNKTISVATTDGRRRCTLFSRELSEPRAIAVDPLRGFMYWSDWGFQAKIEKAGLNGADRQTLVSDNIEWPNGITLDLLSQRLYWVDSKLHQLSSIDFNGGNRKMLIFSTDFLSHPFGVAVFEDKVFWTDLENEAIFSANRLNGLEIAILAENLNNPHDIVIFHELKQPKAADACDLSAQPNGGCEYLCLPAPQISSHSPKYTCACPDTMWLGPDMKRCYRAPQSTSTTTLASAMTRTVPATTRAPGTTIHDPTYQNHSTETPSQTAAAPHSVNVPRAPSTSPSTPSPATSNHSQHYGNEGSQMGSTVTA

B1: BCC.763 (antibody, V domains shown)
VH: CQSVEESGGRLVTPGTPLTLTCTASGFSLSSYNMNWVRQAPGKGLEWIGYINKGGSAYYASWAKGRFTISRTSTTVDLKMTSPTTEDTATYFCVRSGGGGNLNLWGQGTLVTVSS
VL: AAVLTQTPSPVSAAVGGTVTISCQSSPNILGNYLSWFQQKPGQPPKLLIYYTSTLASGVPSRFKGSGSGTQFTLTISDVQCDDAATYYCLGVYRSDSDNVFGGGTEVVVK
notes: Rabbit IgG, kappa; also called antibody 763
On to B1, for which the EC50 in test [1], in test [2], in test [3] and in test [4] was less than 0.02 µg/mL in each case.

B2: BCC.763-1 (antibody, V domains shown)
VH: CQSVEESGGRLVTPGTPLTLTCTASGFSLSSYNMNWVRQAPGKGLEWIGYINKGGSAYYASWAKGRFTISRTSTTVDLKMTSPTPEDTATYFCVRSGGGGNLNLWGQGTLVTVSS
VL: AAVLTQTPSPVSAAVGGTVTISCQSSPNILGNYLSWFQQKPGQPPKLLIYYTSTLASGVPSRFKGSGSGTQFTLTISDVQCDDAATYYCLGVYRSDSDNVFGGGTEVVVK
notes: recombinant rabbit IgG, kappa; Positions are Wolfguy indices, not positions on the entry; tie inferred
As for B2, the 50% effective concentration (EC50) in test [1] and in test [4] was less than 0.02 µg/mL throughout.

B3: BCC.763-2 (antibody, V domains shown)
VH: CQSVEESGGRLVTPGTPLTLTCTASGFSLSSYNMNWVRQAPGKGLAWIGYINKGGSAYYASWAKGRFTISKTSTTVDLKMTSPTTEDTATYFCVRSGGGGNLNLWGQGTLVTVSS
VL: AAVLTQTPSPVSAAVGGTVTISCQSSPNILGNYLSWFQQKPGQPPKLLIYYTSTLASGVPSRFKGSGSGTQFTLTISDVQCDDAATYYCLGVYRSDSDNVFGGGTEVVVK
notes: recombinant rabbit IgG, kappa; Positions are Wolfguy indices; tie inferred; also called VH variant 2103:7194:16368 1:N:0:1
With B3, the EC50 in test [1] and in test [4] was less than 0.02 µg/mL each time.

B4: BCC.763-4 (antibody, V domains shown)
VH: CQSVEESGGRLVTPGTPLTLTCTASGFSLSSYNMNWVRQAPGKGLEWIGYINKGGSAYDANWAKGRFTISRTSTTVDLKMTSPTPEDTATYFCVRSGGGGNLNLWGQGTLVTVSS
VL: AAVLTQTPSPVSAAVGGTVTISCQSSPNILGNYLSWFQQKPGQPPKLLIYYTSTLASGVPSRFKGSGSGTQFTLTISDVQCDDAATYYCLGVYRSDSDNVFGGGTEVVVK
notes: recombinant rabbit IgG, kappa; Positions are Wolfguy indices; tie inferred; copies: 2 + 2
Turning to B4, the EC50 was less than 0.05 µg/mL in test [1] and less than 0.02 µg/mL in test [4].
